# From patent publication US20190367627A1 (AGENUS, published 2019)
# T1: human OX40 (human, UniProt P43489 29-277)
# T1 construct: Recombinantly expressed on transduced Jurkat cells; also called OX40 receptor; huOX40
# T1 sequence: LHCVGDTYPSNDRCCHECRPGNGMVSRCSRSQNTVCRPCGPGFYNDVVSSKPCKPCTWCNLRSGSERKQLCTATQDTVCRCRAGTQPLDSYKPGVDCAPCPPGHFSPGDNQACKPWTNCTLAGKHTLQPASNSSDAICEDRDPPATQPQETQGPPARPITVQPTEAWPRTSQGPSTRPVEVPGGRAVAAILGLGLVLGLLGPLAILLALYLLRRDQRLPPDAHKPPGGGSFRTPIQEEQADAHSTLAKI
# Target: T1, human OX40
# Assay: flow cytometry on Jurkat cells expressing human OX40
# From the text: FIGS. 1A, 1B, 1C, 1D, 1E, IF, 1G, 1H, 1I, and 1J are a set of flow cytometry plots showing the binding of anti-OX40 antibodies or an isotype control antibody to Jurkat cells expressing human OX40. The anti-OX40 antibodies tested include pab1949, pab2049, heavy chain variants of pab1949 (pab1949 N56Y, pab1949 Y103A, pab1949 D104A, pab1949 Y108A, and pab1949 D109A), and light chain variants of pab1949 (pab1949 A96G/L97S, pab1949 Q98K, and pab1949 T99W). All the anti-OX40 antibodies tested are IgG₁ antibodies. MFI values are plotted over a range of antibody concentrations.
# The binding characteristics of the anti-OX40 antibodies to cells expressing human OX40 were analyzed by flow cytometry. Briefly, Jurkat cells were transduced to recombinantly express human OX40. Stable clones were generated via single-cell sorting (FACS ARIA Fusion). OX40 expression was verified by flow cytometry using positive control antibodies. For binding analysis, OX40-expressing Jurkat cells were incubated with anti-OX40 antibodies (12-point dose titration, 10 μg/ml to 0.00005 μg/ml) for 30 minutes at 4° C. The samples were washed twice and then incubated with FITC-conjugated mouse anti-human kappa detection antibody (Life Technologies, Catalog number: HP6062) for 30 minutes at 4° C. The samples were then washed twice and analyzed using the LSRFortessa flow cytometer (BD Biosciences). The flow cytometry plots were analyzed using a combination of FACS DIVA and WEHI Weasel software.
row,Binder,binding result
1,"pab1949 (antibody, human IgG1, kappa, V domains shown, also called pab1949 (IgG1)) VH: EVQLVESGGGLVQPGGSLKLSCAASGFTFSGSAMHWVRQASGKGLEWVGRIRSKANSYATAYAASVKGRFTISRDDSKNTAYLQMNSLKTEDTAVYYCTSGIYDSSGYDYWGQGTLVTVSS VL: not shown",binds
2,"pab2049 (antibody, human IgG1, V domains shown, its constant region is not tied to this antibody; also called pab2049 (IgG1)) VH: EVQLVESGGGLVQPGGSLKLSCAASGFTFSGSAMHWVRQASGKGLEWVGRIRSKANSYATAYAASVKGRFTISRDDSKNTAYLQMNSLKTEDTAVYYCTSGIYDSSGYDYWGQGTLVTVSS VL: not shown",binds
3,"pab1949 N56Y (antibody, IgG1, V domains shown) VH: EVQLVESGGGLVQPGGSLKLSCAASGFTFSGSAMHWVRQASGKGLEWVGRIRSKAYSYATAYAASVKGRFTISRDDSKNTAYLQMNSLKTEDTAVYYCTSGIYDSSGYDYWGQGTLVTVSS VL: not shown",binds
4,"pab1949 A96G/L97S (antibody, IgG1, V domains shown, Only variable domains are tied to this antibody) VH: EVQLVESGGGLVQPGGSLKLSCAASGFTFSGSAMHWVRQASGKGLEWVGRIRSKANSYATAYAASVKGRFTISRDDSKNTAYLQMNSLKTEDTAVYYCTSGIYDSSGYDYWGQGTLVTVSS VL: not shown",binds
5,"pab1949 D109A (antibody, IgG1, V domains shown) VH: EVQLVESGGGLVQPGGSLKLSCAASGFTFSGSAMHWVRQASGKGLEWVGRIRSKANSYATAYAASVKGRFTISRDDSKNTAYLQMNSLKTEDTAVYYCTSGIYDSSGYAYWGQGTLVTVSS VL: not shown",binds
6,"pab1949 Y108A (antibody, IgG1, V domains shown) VH: EVQLVESGGGLVQPGGSLKLSCAASGFTFSGSAMHWVRQASGKGLEWVGRIRSKANSYATAYAASVKGRFTISRDDSKNTAYLQMNSLKTEDTAVYYCTSGIYDSSGADYWGQGTLVTVSS VL: not shown",binds

# The next lines start with the values.
row,binding result,Binder
1,binds,"pab1949 T99W (antibody, V domains shown, Only variable domains are tied to this antibody) VH: EVQLVESGGGLVQPGGSLKLSCAASGFTFSGSAMHWVRQASGKGLEWVGRIRSKANSYATAYAASVKGRFTISRDDSKNTAYLQMNSLKTEDTAVYYCTSGIYDSSGYDYWGQGTLVTVSS VL: not shown"
2,binds,"pab1949 Q98K (antibody, V domains shown, Only variable domains are tied to this antibody) VH: EVQLVESGGGLVQPGGSLKLSCAASGFTFSGSAMHWVRQASGKGLEWVGRIRSKANSYATAYAASVKGRFTISRDDSKNTAYLQMNSLKTEDTAVYYCTSGIYDSSGYDYWGQGTLVTVSS VL: not shown"
3,binds,"pab1949 Y103A (antibody, IgG1, V domains shown) VH: EVQLVESGGGLVQPGGSLKLSCAASGFTFSGSAMHWVRQASGKGLEWVGRIRSKANSYATAYAASVKGRFTISRDDSKNTAYLQMNSLKTEDTAVYYCTSGIADSSGYDYWGQGTLVTVSS VL: not shown"
4,binds,"pab1949 D104A (antibody, IgG1, V domains shown) VH: EVQLVESGGGLVQPGGSLKLSCAASGFTFSGSAMHWVRQASGKGLEWVGRIRSKANSYATAYAASVKGRFTISRDDSKNTAYLQMNSLKTEDTAVYYCTSGIYASSGYDYWGQGTLVTVSS VL: not shown"
